± gives the uncertainty stated by the source.
Test: self-splicing fitness, log relative to wild type (ln ratio); higher = more splicing; Tetrahymena group I intron in knt gene, E. coli kanamycin selection, DiMSum; sequences stand for … in CUCUCU…GGAGGGAAAAGUUAUCAGGCAUGCACCUGGUAGCUAGUCUUUAAACCAAUAGAUUGCAUCGGUUUAAAAGGCAAGACCGUCAAAUUGCGGGAAAGGGGUCAACAGCCGUUCAGUACCAAGUCUCAGGGGAAACUUUGAGAUGGCCUUGCAAAGGGUAUGGUAAUAAGCUGACGGACAUGGUCCUAACCACGCAGCCAAGUCCUAAGUCAACAGAUCUUCUGUUGAUAUGGAUGCAGUUCACAGACUAAAUGUCGGUCGGGGAAGAUGUAUUCUUCUCAUAAGAUAUAGUCGGACCUCUCCUUAAUGGGAGCUAGCGGAUGAAGUGAUGCAACACUGGAGCCGCUGGGAACUAAUUUGUAUGCGAAAGUAUAUUGAUUAGUUUUGGAGUACUCGUGGUCG
Outline: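 Fitness was computed with DiMSum as the error-weighted combination of replicate fold changes, kanamycin versus none, each normalised to wild type. The library randomised all eight intron nucleotides of the P1ex region, with the intron placed in the knt kanamycin-resistance gene on pET-22b(+) in E. coli BL21(DE3). Six replicate transformations were grown overnight at 37°C or 30°C on LB agar with or without 25 μg/mL kanamycin, plus 100 μg/mL carbenicillin, 50 μM IPTG and 0.2% rhamnose. Pooled colonies were amplicon-sequenced on an Illumina HiSeq 2500.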

Sequence | self-splicing fitness (ln) (30 °C) | self-splicing fitness (ln) (37 °C)
UCUUAGCAAUAUUACGACAU | -3.836 ± 0.034 | -2.41 ± 0.04
UCUUAGCAAUAUUACGACGA | 0.0588 ± 0.29 | -1.68 ± 0.22
UCUUAGCAAUAUUACGACUU | -3.52 ± 0.31 | -2.47 ± 0.31
UCUUAGCAAUAUUACGAGUU | -2.85 ± 0.16 | -0.665 ± 0.15
UCUUAGCAAUAUUACGAUAG | -1.77 ± 0.17 | -1.63 ± 0.16
UCUUAGCAAUAUUACGAUUU | -3.07 ± 0.18 | -1.09 ± 0.13
UCUUAGCAAUAUUACGCGUU | -3.83 ± 0.34 | -1.75 ± 0.2
UCUUAGCAAUAUUACGCUUA |  | -1.22 ± 0.28
UCUUAGCAAUAUUACGCUUU |  | -2.47 ± 0.32
UCUUAGCAAUAUUACGGAAU | -4.47 ± 0.26 | -1.93 ± 0.16
UCUUAGCAAUAUUACGGCCU | -3.85 ± 0.46 | 
UCUUAGCAAUAUUACGGCGG | -0.64 ± 0.11 | -0.0592 ± 0.13
UCUUAGCAAUAUUACGGGGG | -2.89 ± 0.39 | -2.51 ± 0.3
UCUUAGCAAUAUUACGGGGU | -3.44 ± 0.2 | -2.39 ± 0.28
UCUUAGCAAUAUUACGGUCA | -1.71 ± 0.16 | -0.613 ± 0.16
UCUUAGCAAUAUUACGGUCC | -3.99 ± 0.29 | -2.74 ± 0.43
UCUUAGCAAUAUUACGGUGA | -0.481 ± 0.1 | 0.15 ± 0.1
UCUUAGCAAUAUUACGGUUC | -3.68 ± 0.28 | -2.29 ± 0.23
UCUUAGCAAUAUUACGUACC | -1.26 ± 0.48 | -1.53 ± 0.41
UCUUAGCAAUAUUACGUACU | -2.72 ± 0.17 | -1.66 ± 0.18
UCUUAGCAAUAUUACGUCAC |  | -1.9 ± 0.33
UCUUAGCAAUAUUACGUCCG | -1.41 ± 0.19 | -1.59 ± 0.23
UCUUAGCAAUAUUACGUCCU | -1.97 ± 0.28 | -2.7 ± 0.38
UCUUAGCAAUAUUACGUUAG | -3.78 ± 0.4 | -1.17 ± 0.21

Sequence | self-splicing fitness (ln) (30 °C) | self-splicing fitness (ln) (37 °C)
UGAAAGCAAUAUUACGCCUG | -0.546 ± 0.11 | -0.244 ± 0.12
UGAAAGCAAUAUUACGCGAA | -1.52 ± 0.17 | -1.05 ± 0.2
UGAAAGCAAUAUUACGCGUU | -3.19 ± 0.19 | -3.1 ± 0.29
UGAAAGCAAUAUUACGCUGA | -2.09 ± 0.15 | -3.15 ± 0.23
UGAAAGCAAUAUUACGCUUU | -4.77 ± 0.28 | -2.53 ± 0.26
UGAAAGCAAUAUUACGGAGC | -3.81 ± 0.37 | -2.81 ± 0.26
UGAAAGCAAUAUUACGGAUC | -3.19 ± 0.24 | -2.83 ± 0.33
UGAAAGCAAUAUUACGGCCG | -0.266 ± 0.091 | 0.807 ± 0.15
UGAAAGCAAUAUUACGGGAG | -1.49 ± 0.12 | -0.515 ± 0.12
UGAAAGCAAUAUUACGGGUA | -1.01 ± 0.1 | -0.387 ± 0.097
UGAAAGCAAUAUUACGGUUG | -1.29 ± 0.079 | -0.865 ± 0.091
UGAAAGCAAUAUUACGUAAA | -1.75 ± 0.082 | -0.9 ± 0.098
UGAAAGCAAUAUUACGUAUU | -3.21 ± 0.13 | -2.19 ± 0.12
UGAAAGCAAUAUUACGUCAC | -3.83 ± 0.47 | -2.2 ± 0.27
UGAAAGCAAUAUUACGUCGU | -4.87 ± 0.36 | -1.38 ± 0.12
UGAAAGCAAUAUUACGUCUG | -0.102 ± 0.071 | 0.773 ± 0.09
UGAAAGCAAUAUUACGUUUA | -0.985 ± 0.066 | -0.471 ± 0.074
UGAAAGCAAUAUUACGUUUU | -3.67 ± 0.18 | -3.41 ± 0.35
UGACAGCAAUAUUACGAAGU | -3.26 ± 0.2 | -2.91 ± 0.28
UGACAGCAAUAUUACGACGG | -0.284 ± 0.11 | -0.251 ± 0.11
UGACAGCAAUAUUACGAGCU | -2.11 ± 0.083 | -1.53 ± 0.083
UGACAGCAAUAUUACGAUAG | -1.49 ± 0.07 | -0.347 ± 0.076
UGACAGCAAUAUUACGAUGG | -1.5 ± 0.084 | 0.221 ± 0.12
UGACAGCAAUAUUACGCAGC | -3.89 ± 0.33 | -2.43 ± 0.27
